Columns and labels:
[1] = Brightness of additional luciferase enzyme variants with CS0280; format: biochemical; settings: for luminescence CS0280 BG / luminescence CS0280 DR / Fold improvement over ATG3707, CS0280 BG / Fold improvement over ATG3707, CS0280 DR: Table 7B
Procedure: (§1) Additional luciferase enzyme variants were generated and evaluated for their stability and activity. To evaluate the additional luciferase enzyme variants, 0.005 mg/ml luciferase enzyme variant was mixed with 1 mM ATP+1 mM substrate in either Bright-Glo™ (BG) or Detection Reagent (DR) buffers. […] (Table 7A is colored according to their relative luminescence values within each column across a red to green color spectrum with the lowest values colored red and the highest values colored green.)

[2] = Differential scanning fluorimetry (DSF) analysis; format: physicochemical; design: key to DSF Tm: melting temperature in °C (heated 30-95 °C at 1 °C/min); settings: for DSF Tm (° C.): Table 7B
Procedure: (§2) To conduct the experiment, Sypro Orange (5000×) was diluted in water to 3× and combined with enzymes stored in 50 mM HEPES pH 7.5, 100 mM NaCl, 2 mM EDTA to a final concentration of 5×. Fluorescence was read at 60 second intervals as the reactions were heated at 1° C. per minute from 30-95° C. The change in fluorescence at each minute was calculated and plotted for each temperature in the range.
as §2, with “The luciferase enzyme variants generated were also evaluated using DSF analysis as shown in the representative results provided in Tables 7A and 7B above. To” for “To”, “the experiments,” for “the experiment,”, “in 20” for “in 50”, “7.5, 200” for “7.5, 100”, “NaCl, 1” for “NaCl, 2”

[3] = Brightness of additional luciferase enzyme variants with CS0333; format: biochemical; settings: for luminescence CS0333 BG / luminescence CS0333 DR / Fold improvement over ATG3707, CS0333 BG / Fold improvement over ATG3707, CS0333 DR: Table 7B
Procedure: as §1

[4] = 1 mM CS0280, Detection Reagent buffer
[5] = 1 mM CS0333, Detection Reagent buffer

Row | Molecule | luminescence CS0280 BG ([1]; 1 mM CS0280, Bright-Glo buffer) | luminescence CS0280 DR [1, 4] | luminescence CS0333 BG ([3]; 1 mM CS0333, Bright-Glo buffer) | luminescence CS0333 DR [3, 5] | Fold-improvement over ATG3707, CS0280 BG ([1]; Table 7A, 1 mM CS0280, Bright-Glo buffer) | Fold-improvement over ATG3707, CS0280 DR ([1]; Table 7A, 1 mM CS0280, Detection Reagent buffer) | DSF Tm ([2]; Table 7A) | Fold-improvement over ATG3707, CS0333 BG ([3]; Table 7A, 1 mM CS0333, Bright-Glo buffer) | Fold-improvement over ATG3707, CS0333 DR ([3]; Table 7A, 1 mM CS0333, Detection Reagent buffer) | Fold improvement over ATG3707, CS0280 BG ([1]; Bright-Glo buffer) | Fold improvement over ATG3707, CS0280 DR ([1]; Detection Reagent buffer) | DSF Tm (° C.) [2] | Fold improvement over ATG3707, CS0333 BG ([3]; Bright-Glo buffer) | Fold improvement over ATG3707, CS0333 DR ([3]; Detection Reagent buffer)
1 | C7573G10: SEQ ID NO: 69; H244W+T344A+I396K+S193A+N228D+L305F+S306P+I109V+A316M (protein) MADKNILYGPEPFYPLEDGTAGEQMFDALSRYAAIPGCIALTNAHTKENVLYEEFLKLSCRLAESFKKYGLKQNDTIAVCSENSLQFFLPVIASLYLGIIVAPVNDKYIERELIHSLGIVKPRIVFCSKNTFQKVLNVKSKLKSIETIIILDLNEDLGGYQCLNNFISQNSDSNLDVKKFKPYSFNRDDQVAAIMFSSGTTGLPKGVMLTHKNIVARFSIAKDPTFGNAINPTSAILTVIPFHHGFGMMTTLGYFTCGFRVVLMHTFEEKLFLQSLQDYKVESTLLVPTLMAFLAKSALVEKYDLSHLKEIASGGAPLSKEIGEMVKKRFKLNFVRQGYGLTETTSAVLITPKGDAKPGSTGKIVPLHAVKVVDPTTGKILGPNEPGELYFKGPMIMKGYYNNEEATKAIIDNDGWLRSGDIAYYDNDGHFYIVDRLKSLIKYKGYQVAPAEIEGILLQHPYIVDAGVTGIPDEAAGELPAAGVVVQTGKYLNEQIVQDYVASQVSTAKWLRGGVKFLDEIPKGSTGKIDRKVLRQMLEKHTNGHHHHHHHH | – | – | – | – | 14.12 | 19.49 | 62 | 2.81 | 2.09 | – | – | – | – | –
2 | C8523E12: SEQ ID NO: 94; H244W+T344A+I396K+S193A+N228D+L305F+S306P+I109V+C38R+F55I+A316W+T342S+V348I (protein) MADKNILYGPEPFYPLEDGTAGEQMFDALSRYAAIPGCIALTNAHTKENVLYEEFLKLSCRLAESFKKYGLKQNDTIAVCSENSLQFFLPVIASLYLGIIVAPVNDKYVERELIHSLGIVQPRIVFCSKNTFQKVLNVKSKLKSIETIIILDLNEDLGGYQCLNNFISQNSDSNLDVKKFKPYSFNRDDQVAAIMFSSGTTGLPKGVMLTHKNIVARFSIAKDPTFGDAINPTSAILTVIPFHWGFGMMTTLGYFTCGFRAVLMHTFEEKLFLQSLQDYKVESTLLIPTLMAFLAKSALVEKYDFPHLKEIASGGAPLSKEIGEMVKKRFKLNFVRQGYGLTEATSAVLITPKGDAKPGSTGKIVPLHAVKVVDPTTGKILGPNEPGELYFKGPMKMKGYYNNEEATKAIIDNDGWLRSGDIAYYDNDGHFYIVDRLKSLIKYKGYQVAPAEIEGILLQHPYIVDAGVTGIPDEAAGELPAAGVVVQTGKYLNEQIVQDYVASQVSTAKWLRGGVKFLDEIPKGSTGKIDRKVLRQMLEKHTNGHHHHHHHH | 1,996,020 | 213,031 | 20,331,700 | 15,418,100 | – | – | – | – | – | 2.52 | 7.29 | 67 °C | 3.82 | 3.62
3 | C9644H7: SEQ ID NO: 97; H244W+T344A+I396K+S193A+N228D+L305F+S306P+I109V+C38R+A316W+T342S+V348I (protein) MADKNILYGPEPFYPLEDGTAGEQMFDALSRYAAIPGRIALTNAHTKENVLYEEFLKLSCRLAESFKKYGLKQNDTIAVCSENSLQFFLPVIASLYLGIIVAPVNDKYVERELIHSLGIVKPRIVFCSKNTFQKVLNVKSKLKSIETIIILDLNEDLGGYQCLNNFISQNSDSNLDVKKFKPYSFNRDDQVAAIMFSSGTTGLPNGVMLTHKNIVARFSIAKDPTFGDAINPTSAILTVIPFHWGFGMMTTLGYFTCGFRVVLMHTFEEKLFLQSLQDYKVESTLLVPTLMAFLAKSALVEKYDFPHLKEIASGGWPLSKEIGEMVKKRFKLNFVRQGYGLSEATSAILITPKGDAKPGSTGKIVPLHAVKVVDPTTGKILGPNEPGELYFKGPMKMKGYYNNEEATKAIIDNDGWLRSGDIAYYDNDGHFYIVDRLKSLIKYKGYQVAPAEIEGILLQHPYIVDAGVTGIPDEAAGELPAAGVVVQTGKYLNEQIVQDYVASQVSTAKWLRGGVKFLDEIPKGSTGKIDRKVLRQMLEKHTNGHHHHHHHH | 1,642,120 | 83,763 | 15,784,700 | 11,887,900 | – | – | – | – | – | 2.07 | 2.87 | 59 °C | 2.97 | 2.79

Further lines, with some results ahead:

Row | luminescence CS0280 BG ([1]; 1 mM CS0280, Bright-Glo buffer) | luminescence CS0280 DR [1, 4] | luminescence CS0333 BG ([3]; 1 mM CS0333, Bright-Glo buffer) | luminescence CS0333 DR [3, 5] | Molecule | Fold-improvement over ATG3707, CS0280 BG ([1]; Table 7A, 1 mM CS0280, Bright-Glo buffer) | Fold-improvement over ATG3707, CS0280 DR ([1]; Table 7A, 1 mM CS0280, Detection Reagent buffer) | DSF Tm ([2]; Table 7A) | Fold-improvement over ATG3707, CS0333 BG ([3]; Table 7A, 1 mM CS0333, Bright-Glo buffer) | Fold-improvement over ATG3707, CS0333 DR ([3]; Table 7A, 1 mM CS0333, Detection Reagent buffer) | Fold improvement over ATG3707, CS0280 BG ([1]; Bright-Glo buffer) | Fold improvement over ATG3707, CS0280 DR ([1]; Detection Reagent buffer) | DSF Tm (° C.) [2] | Fold improvement over ATG3707, CS0333 BG ([3]; Bright-Glo buffer) | Fold improvement over ATG3707, CS0333 DR ([3]; Detection Reagent buffer)
4 | 7,349,470 | 984,923 | 12,508,600 | 11,647,400 | C9679H10: SEQ ID NO: 99; H244W+T344A+I396K+S193A+N228D+L305F+S306P+I109V+A316W+T344I (protein) MADKNILYGPEPFYPLEDGTAGEQMFDALSRYAAIPGRIALTNAHTKENVLYEEILKLSCRLAESFKKYGLKQNDTIAVCSENSLQFFLPVIASLYLGIIVAPVNDKYVERELIHSLGIVKPRIVFCSKNTFQKVLNVKSKLKSIETIIILDLNEDLGGYQCLNNFISQNSDSNLDVKKFKPYSFNRDDQVAAIMFSSGTTGLPKGVMLTHKNIVARFSIAKDPTFGDAINPTSAILTVIPFHWGFGMMTTLGYFTCGFRVVLMHTFEEKLFLQSLQDYKVESTLLVPTLMAFLAKSALVEKYDFPHLKEIASGGWPLSKEIGEMVKKRFKLNFVRQGYGLSEATSAILITPKGDAKPGSTGKIVPLHAVKVVDPTTGKILGPNEPGELYFKGPMKMKGYYNNEEATKAIIDNDGWLRSGDIAYYDNDGHFYIVDRLKSLIKYKGYQVAPAEIEGILLQHPYIVDAGVTGIPDEAAGELPAAGVVVQTGKYLNEQIVQDYVASQVSTAKWLRGGVKFLDEIPKGSTGKIDRKVLRQMLEKHTNGHHHHHHHH | – | – | – | – | – | 9.26 | 33.69 | 65 °C | 2.35 | 2.73
5 | 7,501,350 | 891,010 | 13,322,000 | 11,733,600 | C9649G7: SEQ ID NO: 98; H244W+T344A+I396K+S193A+N228D+L305F+S306P+I109V+C38R+F55I+K121Q+A316W+Y339M+T344I+V348I (protein) MADKNILYGPEPFYPLEDGTAGEQMFDALSRYAAIPGRIALTNAHTKENVLYEEILKLSCRLAESFKKYGLKQNDTIAVCSENSLQFFLPVIASLYLGIIVAPVNDKYVERELIHSLGIVKPRIVFCSKNTFQKVLNVKSKLKSIETIIILDLNEDLGGYQCLNNFISQNSDSNLDVKKFKPYSFNRDDQVAAIMFSSGTTGLPKGVMLTHKNIVARFSIAKDPTFGDAINPTSAILTVIPFHWGFGMMTTLGYFTCGFRVVLMHTFEEKLFLQSLQDYKVESTLLVPTLMAFLAKSALVEKYDFPHLKEIASGGWPLSKEIGEMVKKRFKLNFVRQGYGLSEATSAILITPKGDAKPGSTGKIVPLHAVKVVDPTTGKILGPNEPGELYFKGPMKMKGYYNNEEATKAIIDNDGWLRSGDIAYYDNDGHFYIVDRLKSLIKYKGYQVAPAEIEGILLQHPYIVDAGVTGIPDEAAGELPAAGVVVQTGKYLNEQIVQDYVASQVSTAKWLRGGVKFLDEIPKGSTGKIDRKVLRQMLEKHTNGHHHHHHHH | – | – | – | – | – | 9.46 | 30.48 | 51 °C | 2.50 | 2.75
6 | 11,877,500 | 1,439,510 | 8,464,030 | 7,772,660 | C9671D10: SEQ ID NO: 100; H244W+T344A+I396K+S193A+N228D+L305F+S306P+I109V+C38R+F55I+Y108F+A316W+Y339M+T344I (protein) MADKNILYGPEPFYPLEDGTAGEQMFDALSRYAAIPGRIALTNAHTKENVLYEEILKLSCRLAESFKKYGLKQNDTIAVCSENSLQFFLPVIASLYLGIIVAPVNDKYVERELIHSLGIVKPRIVFCSKNTFQKVLNVKSKLKSIETIIILDLNEDLGGYQCLNNFISQNSDSNLDVKKFKPYSFNRDDQVAAIMFSSGTTGLPKGVMLTHKNIVARFSIAKDPTFGDAINPTSAILTVIPFHWGFGMMTTLGYFTCGFRVVLMHTFEEKLFLQSLQDYKVESTLLVPTLMAFLAKSALVEKYDFPHLKEIASGGWPLSKEIGEMVKKRFKLNFVRQGYGLSEATSAILITPKGDAKPGSTGKIVPLHAVKVVDPTTGKILGPNEPGELYFKGPMKMKGYYNNEEATKAIIDNDGWLRSGDIAYYDNDGHFYIVDRLKSLIKYKGYQVAPAEIEGILLQHPYIVDAGVTGIPDEAAGELPAAGVVVQTGKYLNEQIVQDYVASQVSTAKWLRGGVKFLDEIPKGSTGKIDRKVLRQMLEKHTNGHHHHHHHH | – | – | – | – | – | 14.97 | 49.24 | 65 °C | 1.59 | 1.82

Source: patent publication US12545899B2, “Luciferase enzymes for use with thermostable luciferins in bioluminescent assays” (Promega Corporation, priority 2018, dated 2026)
